In patent US20190263882A1 (Scripps Research, published 2019):

T1: relaxin receptor (LGR7)
T1 sequence (Q9HBX9 whole entry, species assumed, looked up): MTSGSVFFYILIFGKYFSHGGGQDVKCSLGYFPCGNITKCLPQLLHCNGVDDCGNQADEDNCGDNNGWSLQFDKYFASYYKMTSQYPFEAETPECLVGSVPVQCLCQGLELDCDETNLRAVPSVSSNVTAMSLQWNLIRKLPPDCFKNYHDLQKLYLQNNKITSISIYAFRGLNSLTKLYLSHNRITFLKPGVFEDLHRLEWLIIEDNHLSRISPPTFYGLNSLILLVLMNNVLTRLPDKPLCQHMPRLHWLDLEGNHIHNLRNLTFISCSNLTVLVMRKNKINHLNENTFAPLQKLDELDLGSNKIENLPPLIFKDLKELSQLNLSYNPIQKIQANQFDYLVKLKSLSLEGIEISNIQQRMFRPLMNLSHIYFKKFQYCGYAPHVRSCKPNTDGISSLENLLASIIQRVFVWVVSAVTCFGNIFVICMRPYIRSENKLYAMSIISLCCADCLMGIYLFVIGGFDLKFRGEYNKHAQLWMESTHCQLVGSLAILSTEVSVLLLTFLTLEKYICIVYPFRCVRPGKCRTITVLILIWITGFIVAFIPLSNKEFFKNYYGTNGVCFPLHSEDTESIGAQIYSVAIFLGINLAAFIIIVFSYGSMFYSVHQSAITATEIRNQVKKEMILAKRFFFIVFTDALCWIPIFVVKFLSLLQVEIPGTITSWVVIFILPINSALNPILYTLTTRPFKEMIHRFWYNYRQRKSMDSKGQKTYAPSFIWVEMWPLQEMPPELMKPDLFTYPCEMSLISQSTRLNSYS


What was measured:
[1] = molecular target: T1, relaxin receptor (LGR7); experiment: cell-based or functional assay
[2] = molecular target: T2, RSV F protein (UniProt P03420 26-524); experiment: ELISA, 100 ng/well RSV F protein coated, HRP anti-human IgG (Fc specific), QuantaBlu fluorescence (10 min)
T2 sequence (P03420 26-524): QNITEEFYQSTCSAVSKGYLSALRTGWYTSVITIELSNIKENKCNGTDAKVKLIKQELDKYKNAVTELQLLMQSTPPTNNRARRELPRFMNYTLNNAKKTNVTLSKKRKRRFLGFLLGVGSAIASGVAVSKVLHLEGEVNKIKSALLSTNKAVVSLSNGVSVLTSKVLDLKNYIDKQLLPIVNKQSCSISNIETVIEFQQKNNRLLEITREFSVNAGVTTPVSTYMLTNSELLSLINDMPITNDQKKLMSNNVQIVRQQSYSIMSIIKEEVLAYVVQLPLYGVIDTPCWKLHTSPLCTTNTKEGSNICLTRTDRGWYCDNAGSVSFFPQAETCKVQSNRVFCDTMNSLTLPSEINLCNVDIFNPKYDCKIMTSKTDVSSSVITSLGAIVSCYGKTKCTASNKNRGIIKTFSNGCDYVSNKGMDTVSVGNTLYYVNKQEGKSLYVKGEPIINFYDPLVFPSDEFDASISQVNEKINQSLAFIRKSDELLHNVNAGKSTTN
Protocol: Optimized palivizumab-relaxin fusion protein antibodies were tested for binding to RSV by ELISA assay. 100 ng/well RSV F protein was coated on 96-well plate in PBS 4° C. overnight. The plate was blocked with 2% BSA/PBS at room temperature for 1 hr, then washed twice with 200 μL PBS. The fusion antibodies were incubated at various concentrations (as indicated in FIG. 4) in 2% BSA/PBS at room temperature for 1 hr. Plates were washed with PBS (0.025% Tween-20 in PBS) four times and washed with PBS one time. […] Binding was quantified using Spectramax fluorescence plate reader with excitation at 325 nm and emission at 420 nm. Binding Kd values were determined (Table 14).

[3] = molecular target: T2, RSV F protein; experiment: plate binding assay, RSV F protein coated, anti-human IgG (Fc specific) detection, fluorescence read at 25 min
[4] = molecular target: T2, RSV F protein; experiment: plate binding assay, RSV F protein coated, anti-human IgG (Fc specific) detection, fluorescence read at 50 min

| Binder | EC50, CRE-luciferase reporter assay [1] [nM] | Kd [2] [nM] | Kd [3] [nM] | Kd [4] [nM] |
| --- | --- | --- | --- | --- |
| RLX304 (antibody, human IgG1, kappa) heavy: DSWMEEVIKLCGRELVRAQIAICGMSTWSGGGGSGGGGQLYSALANKCCHVGCTKRSLARFCGGGGSGGGGSGGGGSGQVTLRESGPALVKPTQTLTLTCTFSGFSLSTSGMSVGWIRQPPGKALEWLADIWWDDKKDYNPSLKSRLTISKDTSKNQVVLKVTNMDPADTATYYCARSMITNAYFDVWGAGTTVTVSSASTKGPSVFPLAPSSKSTSGGTAALGCLVKDYFPEPVTVSWNSGALTSGVHTFPAVLQSSGLYSLSSVVTVPSSSLGTQTYICNVNHKPSNTKVDKKVEPKSCDKTHTCPPCPAPPVAGPSVFLFPPKPKDTLMISRTPEVTCVVVDVSHEDPEVKFNWYVDGVEVHNAKTKPREEQYNSTYRVVSVLTVLHQDWLNGKEYKCKVSNKGLPSSIEKTISKAKGQPREPQVYTLPPSRDELTKNQVSLTCLVKGFYPSDIAVEWESNGQPENNYKTTPPVLDSDGSFFLYSKLTVDKSRWQQGNVFSCSVMHEALHNHYTQKSLSLSPGK light: DIQMTQSPSTLSASVGDRVTITCKCQLSVGYMHWYQQKPGKAPKLLIYDTSKLASGVPSRFSGSGSGTAFTLTISSLQPDDFATYYCFQGSGYPFTFGGGTKLEIKRTVAAPSVFIFPPSDEQLKSGTASVVCLLNNFYPREAKVQWKVDNALQSGNSQESVTEQDSKDSTYSLSSTLTLSKADYEKHKVYACEVTHQGLSSPVTKSFNRGEC | 0.078 | 38.2 | – | – |
| Palivizumab null (antibody, human IgG1, kappa, also called null palivizumab antibody) heavy: QVTLRESGPALVKPTQTLTLTCTFSGFSLSTSGMSVGWIRQPPGKALEWLADIWWDDKKDYNPSLKSRLTISKDTSKNQVVLKVTNMDPADTATYYCARSMITNWYFDVWGAGTTVTVSSASTKGPSVFPLAPSSKSTSGGTAALGCLVKDYFPEPVTVSWNSGALTSGVHTFPAVLQSSGLYSLSSVVTVPSSSLGTQTYICNVNHKPSNTKVDKKVEPKSCDKTHTCPPCPAPPVAGPSVFLFPPKPKDTLMISRTPEVTCVVVDVSHEDPEVKFNWYVDGVEVHNAKTKPREEQYNSTYRVVSVLTVLHQDWLNGKEYKCKVSNKGLPSSIEKTISKAKGQPREPQVYTLPPSRDELTKNQVSLTCLVKGFYPSDIAVEWESNGQPENNYKTTPPVLDSDGSFFLYSKLTVDKSRWQQGNVFSCSVMHEALHNHYTQKSLSLSPGK light: DIQMTQSPSTLSASVGDRVTITCKCQLSVGYMHWYQQKPGKAPKLLIYDTSKLASGVPSRFSGSGSGTEFTLTISSLQPDDFATYYCFQGSGYPFTFGGGTKLEIKRTVAAPSVFIFPPSDEQLKSGTASVVCLLNNFYPREAKVQWKVDNALQSGNSQESVTEQDSKDSTYSLSSTLTLSKADYEKHKVYACEVTHQGLSSPVTKSFNRGEC | – | – | 0.8 | 0.49 |
| RLX305 (antibody) heavy: DSWMEEVIKLCGRELVRAQIAICGMSTWSGGGGSGGGGQLYSALANKCCHVGCTKRSLARFCGGGGSGGGGSGGGGSGQVTLRESGPALVKPTQTLTLTCTFSGFSLSTSGMSVGWIRQPPGKALEWLADIWWDDKKDYNPSLKSRLTISKDTSKNQVVLKVTNMDPADTATYYCARSMITNAYFDVWGAGTTVTVSSASTKGPSVFPLAPSSKSTSGGTAALGCLVKDYFPEPVTVSWNSGALTSGVHTFPAVLQSSGLYSLSSVVTVPSSSLGTQTYICNVNHKPSNTKVDKKVEPKSCDKTHTCPPCPAPPVAGPSVFLFPPKPKDTLMISRTPEVTCVVVDVSHEDPEVKFNWYVDGVEVHNAKTKPREEQYNSTYRVVSVLTVLHQDWLNGKEYKCKVSNKGLPSSIEKTISKAKGQPREPQVYTLPPSRDELTKNQVSLTCLVKGFYPSDIAVEWESNGQPENNYKTTPPVLDSDGSFFLYSKLTVDKSRWQQGNVFSCSVMHEALHNHYTQKSLSLSPGK light: DIQMTQSPSTLSASVGDRVTITCKCQLSVGYMHWYQQKPGKAPKLLIYDTSKLASGVPSRFSGSGSGTAFTLTISSLQPDDFATYYCFQYSGYPFTFGGGTKLEIKRTVAAPSVFIFPPSDEQLKSGTASVVCLLNNFYPREAKVQWKVDNALQSGNSQESVTEQDSKDSTYSLSSTLTLSKADYEKHKVYACEVTHQGLSSPVTKSFNRGEC | – | 75.2 | – | – |
| RLX306 (antibody) heavy: DSWMEEVIKLCGRELVRAQIAICGMSTWSGGGGSGGGGQLYSALANKCCHVGCTKRSLARFCGGGGSGGGGSGGGGSGQVTLRESGPALVKPTQTLTLTCTFSGFSLSTSGMSVGWIRQPPGKALEWLADIWWDDKKDYNPSLKSRLTISKDTSKNQVVLKVTNMDPADTATYYCARSMITNAYFDVWGAGTTVTVSSASTKGPSVFPLAPSSKSTSGGTAALGCLVKDYFPEPVTVSWNSGALTSGVHTFPAVLQSSGLYSLSSVVTVPSSSLGTQTYICNVNHKPSNTKVDKKVEPKSCDKTHTCPPCPAPPVAGPSVFLFPPKPKDTLMISRTPEVTCVVVDVSHEDPEVKFNWYVDGVEVHNAKTKPREEQYNSTYRVVSVLTVLHQDWLNGKEYKCKVSNKGLPSSIEKTISKAKGQPREPQVYTLPPSRDELTKNQVSLTCLVKGFYPSDIAVEWESNGQPENNYKTTPPVLDSDGSFFLYSKLTVDKSRWQQGNVFSCSVMHEALHNHYTQKSLSLSPGK light: DIQMTQSPSTLSASVGDRVTITCKCQLSVGYMHWYQQKPGKAPKLLIYDTSKLASGVPSRFSGSGSGTAFTLTISSLQPDDFATYYCFQGNGYPFTFGGGTKLEIKRTVAAPSVFIFPPSDEQLKSGTASVVCLLNNFYPREAKVQWKVDNALQSGNSQESVTEQDSKDSTYSLSSTLTLSKADYEKHKVYACEVTHQGLSSPVTKSFNRGEC | – | 82.7 | – | – |
| RLX300 (no mutations) (antibody, human IgG1, kappa, also called SC3.s) heavy: DSWMEEVIKLCGRELVRAQIAICGMSTWSGGGGSGGGGQLYSALANKCCHVGCTKRSLARFCGGGGSGGGGSGGGGSGQVTLRESGPALVKPTQTLTLTCTFSGFSLSTSGMSVGWIRQPPGKALEWLADIWWDDKKDYNPSLKSRLTISKDTSKNQVVLKVTNMDPADTATYYCARSMITNWYFDVWGAGTTVTVSSASTKGPSVFPLAPSSKSTSGGTAALGCLVKDYFPEPVTVSWNSGALTSGVHTFPAVLQSSGLYSLSSVVTVPSSSLGTQTYICNVNHKPSNTKVDKKVEPKSCDKTHTCPPCPAPPVAGPSVFLFPPKPKDTLMISRTPEVTCVVVDVSHEDPEVKFNWYVDGVEVHNAKTKPREEQYNSTYRVVSVLTVLHQDWLNGKEYKCKVSNKGLPSSIEKTISKAKGQPREPQVYTLPPSRDELTKNQVSLTCLVKGFYPSDIAVEWESNGQPENNYKTTPPVLDSDGSFFLYSKLTVDKSRWQQGNVFSCSVMHEALHNHYTQKSLSLSPGK light: DIQMTQSPSTLSASVGDRVTITCKCQLSVGYMHWYQQKPGKAPKLLIYDTSKLASGVPSRFSGSGSGTAFTLTISSLQPDDFATYYCFQGSGYPFTFGGGTKLEIKRTVAAPSVFIFPPSDEQLKSGTASVVCLLNNFYPREAKVQWKVDNALQSGNSQESVTEQDSKDSTYSLSSTLTLSKADYEKHKVYACEVTHQGLSSPVTKSFNRGEC | – | 0.301 | – | – |
| RLX301 (antibody, human IgG1, kappa) heavy: DSWMEEVIKLCGRELVRAQIAICGMSTWSGGGGSGGGGQLYSALANKCCHVGCTKRSLARFCGGGGSGGGGSGGGGSGQVTLRESGPALVKPTQTLTLTCTFSGFSLSTSGMSVGWIRQPPGKALEWLADIWWDDKKDYNPSLKSRLTISKDTSKNQVVLKVTNMDPADTATYYCARSMITFGGFDVWGAGTTVTVSSASTKGPSVFPLAPSSKSTSGGTAALGCLVKDYFPEPVTVSWNSGALTSGVHTFPAVLQSSGLYSLSSVVTVPSSSLGTQTYICNVNHKPSNTKVDKKVEPKSCDKTHTCPPCPAPPVAGPSVFLFPPKPKDTLMISRTPEVTCVVVDVSHEDPEVKFNWYVDGVEVHNAKTKPREEQYNSTYRVVSVLTVLHQDWLNGKEYKCKVSNKGLPSSIEKTISKAKGQPREPQVYTLPPSRDELTKNQVSLTCLVKGFYPSDIAVEWESNGQPENNYKTTPPVLDSDGSFFLYSKLTVDKSRWQQGNVFSCSVMHEALHNHYTQKSLSLSPGK light: DIQMTQSPSTLSASVGDRVTITCKCQLSVGYMHWYQQKPGKAPKLLIYDTSKLASGVPSRFSGSGSGTAFTLTISSLQPDDFATYYCFQGSGYPFTFGGGTKLEIKRTVAAPSVFIFPPSDEQLKSGTASVVCLLNNFYPREAKVQWKVDNALQSGNSQESVTEQDSKDSTYSLSSTLTLSKADYEKHKVYACEVTHQGLSSPVTKSFNRGEC | 0.072 | 79.3 | – | – |
| RLX303 (antibody) heavy: DSWMEEVIKLCGRELVRAQIAICGMSTWSGGGGSGGGGQLYSALANKCCHVGCTKRSLARFCGGGGSGGGGSGGGGSGQVTLRESGPALVKPTQTLTLTCTFSGFSLSTSGMSVGWIRQPPGKALEWLADIWWDDKKDYNPSLKSRLTISKDTSKNQVVLKVTNMDPADTATYYCARSMITFGGFDVWGAGTTVTVSSASTKGPSVFPLAPSSKSTSGGTAALGCLVKDYFPEPVTVSWNSGALTSGVHTFPAVLQSSGLYSLSSVVTVPSSSLGTQTYICNVNHKPSNTKVDKKVEPKSCDKTHTCPPCPAPPVAGPSVFLFPPKPKDTLMISRTPEVTCVVVDVSHEDPEVKFNWYVDGVEVHNAKTKPREEQYNSTYRVVSVLTVLHQDWLNGKEYKCKVSNKGLPSSIEKTISKAKGQPREPQVYTLPPSRDELTKNQVSLTCLVKGFYPSDIAVEWESNGQPENNYKTTPPVLDSDGSFFLYSKLTVDKSRWQQGNVFSCSVMHEALHNHYTQKSLSLSPGK light: DIQMTQSPSTLSASVGDRVTITCKCQLSVGYMHWYQQKPGKAPKLLIYDTSKLASGVPSRFSGSGSGTAFTLTISSLQPDDFATYYCFQGNGYPFTFGGGTKLEIKRTVAAPSVFIFPPSDEQLKSGTASVVCLLNNFYPREAKVQWKVDNALQSGNSQESVTEQDSKDSTYSLSSTLTLSKADYEKHKVYACEVTHQGLSSPVTKSFNRGEC | – | 52.1 | – | – |
